{"source": "paper PMC7505563", "molecular_target": "T1, MatP, tag cleaved (Escherichia coli, UniProt P0A8N0 1-150)", "T1 sequence": "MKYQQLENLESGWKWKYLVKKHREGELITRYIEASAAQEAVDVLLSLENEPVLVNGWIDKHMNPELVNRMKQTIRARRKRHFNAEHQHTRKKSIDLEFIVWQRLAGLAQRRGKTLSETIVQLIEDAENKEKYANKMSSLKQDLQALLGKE", "assay": "crystal structure", "data": [{"binder": "matS 19mer (dsDNA) DNA 1: TTCGTGACATTGTCACGAA DNA 2: TTCGTGACAATGTCACGAA", "values": [{"measurement": "binding result", "value": "binds"}]}]}
